Patent publication US20240383982A1 (Genmab, published 2024)

Assays:
[1] = target: T1, pig (Sus scrofa) B7H4, full length, on HEK-293F cells (pig, UniProt Q7Z7D3 26-282 (human entry)); assay: flow cytometry, HEK-293F cells transfected with pig B7H4 [panel Pig B7H4]
T1 construct: Uniprot F1SAY4; also called pig B7H4
T1 chain: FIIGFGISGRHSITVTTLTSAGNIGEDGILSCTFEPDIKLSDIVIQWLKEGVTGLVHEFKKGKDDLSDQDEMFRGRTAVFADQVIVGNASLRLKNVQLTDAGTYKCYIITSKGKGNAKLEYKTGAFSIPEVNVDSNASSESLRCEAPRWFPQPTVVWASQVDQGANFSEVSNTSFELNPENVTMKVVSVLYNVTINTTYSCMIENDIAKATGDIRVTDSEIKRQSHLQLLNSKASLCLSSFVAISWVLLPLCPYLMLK
Method: (§1) Cells (3×10⁴ cells/well) were incubated in polystyrene 96-well round-bottom plates (Greiner bio-one, cat. no. 650180) with serial dilutions of antibodies (ranging from 0.000458 to 30 μg/mL in 4-fold dilution steps) in 100 μL PBS/0.1% BSA/0.02% azide (staining buffer) at 4° C. for 30 min. Experiments were performed in technical duplicate. After washing twice in staining buffer, cells were incubated in 50 μL secondary antibody at 4° C. for 30 min. As a secondary antibody, R-Phycoerythrin (PE)-conjugated goat-anti-human IgG F(ab′)₂ (1:500 in FACS buffer; Jackson ImmunoResearch Laboratories, Inc., West Grove, PA, cat. no. 109-116-098), was used. Cells were washed twice in staining buffer, re-suspended in 30 μL FACS buffer containing Topro-3 (1:10,000 dilution) and analyzed on an iQue Screener (Intellicyt Corporation, USA). Binding curves were analyzed using non-linear regression (sigmoidal dose-response with variable slope) using GraphPad Prism V7.02 software (GraphPad Software, San Diego, CA, USA).

[2] = target: T2, recombinant hIgG1 Fc-tagged cynomolgus monkey B7H4 (Creative BioMart, cat. no. VTCN1-1517R) (cynomolgus monkey, UniProt Q7Z7D3 25-259 (human entry)); assay: BLI (Octet HTX); Fc-tagged cynomolgus B7H4 coupled to AR2G sensor, bispecific antibody in solution (monovalent B7H4 binding); 1st experiment
T2 construct: Bought protein; also called cynomolgus monkey B7H4 extracellular domain
T2 sequence: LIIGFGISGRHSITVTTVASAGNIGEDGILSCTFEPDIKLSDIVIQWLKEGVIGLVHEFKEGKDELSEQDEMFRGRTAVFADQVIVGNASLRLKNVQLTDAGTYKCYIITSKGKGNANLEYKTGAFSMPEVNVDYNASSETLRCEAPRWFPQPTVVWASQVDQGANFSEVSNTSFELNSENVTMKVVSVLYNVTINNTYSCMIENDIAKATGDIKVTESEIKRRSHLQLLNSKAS
Method: In addition, the affinity of for cynomolgus monkey B7H4 was determined by BLI. […] Amine Reactive 2nd Generation (AR2G) biosensors (FortéBio, cat. no. 18-5092) were activated by reaction with 20 mM EDC (N-(3-Dimethylaminopropyl)-N′-ethylcarbodiimide hydrochloride) (FortéBio, cat. no. 18-1033) and 10 mM s-NHS (N-hydroxysulfosuccinimide sodium salt) (FortéBio, cat. no. 18-1067) for 300 s. The activated sensors were loaded with 10 μg/mL recombinant hIgG1 Fc-tagged cynomolgus monkey B7H4 (Creative BioMart, cat. no. VTCN1-1517R) in 10 mM Sodium Acetate pH 4.0 (FortéBio, cat. no. 18-1068) for 600 s and quenched with 1 M ethanolamine pH 8.5 (FortéBio, cat. no. 18-1071) for 300 s. […] A molecular mass of 150 kDa of the antibodies was used for calculations. For each antibody a reference sensor was used, which was incubated with Sample Diluent instead of antibody.
(§2) Data were acquired using Data Acquisition Software v9.0.0.49d (FortéBio) and analyzed with Data Analysis Software v9.0.0.12 (FortéBio). Data traces were corrected per antibody by subtraction of the reference sensor. The Y-axis was aligned to the last 10 s of the baseline, Interstep Correction alignment to dissociation and Savitzky-Golay filtering were applied. Data traces with a response<0.05 nm were excluded from analysis. The data was fitted with the 1:1 Global Full fit model using a window of interest for the association and dissociation times set at 100 s and 200 s respectively.

B7H4-IgV/B7H3-IgC = target: T3, B7H4-IgV/B7H3-IgC; assay: flow cytometry, HEK cells transiently transfected with B7H4-IgV/B7H3-IgC, PE anti-human IgG F(ab')2 [panel B7H4-IgV/B7H3-IgC]
T3 construct: also called chimeric molecule with the IgV domain of B7H4 and the IgC domain of B7H3
T3 full-length chimeric protein on cells: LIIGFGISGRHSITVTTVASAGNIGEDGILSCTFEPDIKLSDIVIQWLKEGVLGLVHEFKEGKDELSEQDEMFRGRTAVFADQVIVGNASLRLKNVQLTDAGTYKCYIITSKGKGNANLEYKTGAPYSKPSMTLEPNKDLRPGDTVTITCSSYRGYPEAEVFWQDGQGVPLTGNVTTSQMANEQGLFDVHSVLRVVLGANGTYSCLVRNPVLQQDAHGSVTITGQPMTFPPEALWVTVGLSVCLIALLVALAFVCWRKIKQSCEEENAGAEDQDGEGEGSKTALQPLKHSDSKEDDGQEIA
Method: After washing twice in FACS buffer, cells were incubated with secondary antibody at 4° C. for 30 min. […] Next, cells were washed twice in FACS buffer, re-suspended in 20 μL FACS buffer and analyzed on an iQue Screener (Intellicyt Corporation, USA).
Further experiments were conducted to study the B7H4 domain specificity of the B7H4 antibodies in more detail, by analysis of full dose-response curves.

[3] = target: T4, mouse B7H4 ECD-His (R&D Systems, cat. no. 2154-B7-050) (mouse, UniProt Q7TSP5 29-256); assay: BLI (Octet HTX); antibody on anti-human IgG Fc capture sensor, mouse B7H4 ECD-His in solution; 2nd experiment
T4 construct: Bought ECD-His protein (26.6 kDa); also called mouse B7H4 extracellular domain
T4 sequence: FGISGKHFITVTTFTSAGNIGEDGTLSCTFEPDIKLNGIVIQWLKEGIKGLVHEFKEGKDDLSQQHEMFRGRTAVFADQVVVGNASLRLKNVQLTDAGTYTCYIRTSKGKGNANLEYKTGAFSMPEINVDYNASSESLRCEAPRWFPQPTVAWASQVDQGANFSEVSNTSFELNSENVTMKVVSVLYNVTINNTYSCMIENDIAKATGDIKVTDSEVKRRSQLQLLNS
Method: (§3) Target binding affinity of B7H4 antibodies was determined by label-free biolayer interferometry (BLI) on an Octet HTX instrument (FortéBio). Experiments were carried out while shaking at 1,000 RPM at 30° C. […] Anti-Human IgG Fc Capture (AHC) biosensors (FortéBio, cat. no. 18-5060) were pre-conditioned by exposure to 10 mM glycine (Sigma-Aldrich, cat. no. 15527) buffer pH 1.7 for 5 s, followed by neutralization in Sample Diluent (FortéBio, cat. no. 18-1048) for 5 s; both steps were repeated 2 times. Next, AHC sensors were loaded with antibody (1 μg/mL in Sample diluent) for 600 s. […] The theoretical molecular mass of human B7H4 and mouse B7H4 (as ECD-His tagged molecules) based on their amino acid sequences (26.8 kDa and 26.6 kDa respectively) were used for calculations. For each antibody a reference sensor was used, which was incubated with Sample Diluent instead of antigen. AHC sensors were regenerated by exposure to 10 mM glycine buffer pH 1.7 for 5 s, followed by neutralization in Sample Diluent for 5 s; both steps were repeated twice. Subsequently sensors were loaded again with antibody for the next cycle of kinetics measurements.
as §2, with “300” for “100”

[4] = target: T4, mouse B7H4 ECD-His (R&D Systems, cat. …); assay: BLI (Octet HTX); antibody on anti-human IgG Fc capture sensor, mouse B7H4 ECD-His in solution; 1st experiment
Method: as §3
as §2, with “300” for “100”

[5] = target: T5, rabbit (Oryctolagus cuniculus) B7H4, full length, on HEK-293F cells (rabbit, UniProt Q7Z7D3 25-282 (human entry)); assay: flow cytometry, transiently transfected HEK-293F cells
T5 construct: Uniprot G1TQE8; also called rabbit B7H4
T5 chain: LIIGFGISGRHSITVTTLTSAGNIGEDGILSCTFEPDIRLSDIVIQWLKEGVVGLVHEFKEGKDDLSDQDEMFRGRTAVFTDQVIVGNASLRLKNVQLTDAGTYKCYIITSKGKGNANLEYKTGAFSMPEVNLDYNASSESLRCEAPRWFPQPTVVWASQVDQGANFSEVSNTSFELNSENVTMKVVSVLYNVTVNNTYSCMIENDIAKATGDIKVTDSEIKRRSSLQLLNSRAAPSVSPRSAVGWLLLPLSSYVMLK

[6] = target: T6, rat (Rattus norvegicus) B7H4, full length, on HEK-293F cells (rat, UniProt Q501W4 25-257); assay: flow cytometry, HEK-293F cells transfected with rat B7H4 [panel Rat B7H4]
T6 construct: Uniprot Q501W4; also called rat B7H4
T6 sequence: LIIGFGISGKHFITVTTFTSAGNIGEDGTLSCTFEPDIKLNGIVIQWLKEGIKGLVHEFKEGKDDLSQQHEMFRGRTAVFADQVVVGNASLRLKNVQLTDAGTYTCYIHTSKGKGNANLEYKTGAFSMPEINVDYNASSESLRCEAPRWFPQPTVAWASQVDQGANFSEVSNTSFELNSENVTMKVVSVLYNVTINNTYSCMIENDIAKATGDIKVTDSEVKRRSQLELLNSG
Method: as §1

B1: IgG1-B7H4-C3-FEAR (antibody, V domains shown)
VH: EVQLVQSGAEVKKPGASVKVSCKASGYTFTNFWIHWVRQAPGQGLEWIGEIDPSDSYTNYNQKFKGRVTITRDTSTSTAYLELSSLRSEDTAVYYCAREITTVDYWGQGTLVTVSS
VL: DIQMTQSPSSLSASVGDRVTITCSATSSISYMHWYQQKPGKAPKGWIYDTSKLAHGVPSRFSGSGSGTDFTLTISSLQPEDFATYYCHQRRSYPFTFGQGTKVEIKR
notes: Full length IgG1 FEAR, kappa; variable domains from WO2014159835
binding result [1]: no binding (tested: 30 µg/ml)

B2: bsIgG1-huCD3-FEALxB7H4-C1-FEAR (bispecific antibody)
heavy 1: not shown
light 1: not shown
heavy 2: QVQLQQWGAGLLKPSETLSLTCAVYGGSFSGYYWSWIRQPPGKGLEWIGEINHSGSTNYNPSLKSRVTISIDTSKNQFSLKLTSVTAADTAVFYCARGLFNWNFDSWGQGTLVTVSSASTKGPSVFPLAPSSKSTSGGTAALGCLVKDYFPEPVTVSWNSGALTSGVHTFPAVLQSSGLYSLSSVVTVPSSSLGTQTYICNVNHKPSNTKVDKRVEPKSCDKTHTCPPCPAPEFEGGPSVFLFPPKPKDTLMISRTPEVTCVVVAVSHEDPEVKFNWYVDGVEVHNAKTKPREEQYNSTYRVVSVLTVLHQDWLNGKEYKCKVSNKALPAPIEKTISKAKGQPREPQVYTLPPSREEMTKNQVSLTCLVKGFYPSDIAVEWESNGQPENNYKTTPPVLDSDGSFFLYSRLTVDKSRWQQGNVFSCSVMHEALHNHYTQKSLSLSPGK
light 2: DIQMTQSPSSLSASVGDRVTITCRASQGIRNDLGWYQQKPGKAPKRLIYGASSLQSGVPSRFSGSGSGTEFTLTISSLQPEDFATYYCLQHNSYPRTFGQGTTVEIKRTVAAPSVFIFPPSDEQLKSGTASVVCLLNNFYPREAKVQWKVDNALQSGNSQESVTEQDSKDSTYSLSSTLTLSKADYEKHKVYACEVTHQGLSSPVTKSFNRGEC
notes: also called bslgG1-huCD3-FEALxB7H4-C1-FEAR
Kd [2]: 5.1 nM | koff [2]: 0.0014 s⁻¹ | kon [2]: 270000 M⁻¹ s⁻¹

B3: bsIgG1-huCD3-H101G-FEALxB7H4-C2-FEAR (bispecific antibody)
heavy 1: not shown
light 1: not shown
heavy 2: EVQLVQSGAEVKKPGASVKVSCKASGYTFTSYWIGWVRQAPGQGLEWIGDIYPGGGYTNYNEKFKGRVTITRDTSTSTAYLELSSLRSEDTAVYYCARLDGSSYRGAMDSWGQGTLVTVSSASTKGPSVFPLAPSSKSTSGGTAALGCLVKDYFPEPVTVSWNSGALTSGVHTFPAVLQSSGLYSLSSVVTVPSSSLGTQTYICNVNHKPSNTKVDKRVEPKSCDKTHTCPPCPAPEFEGGPSVFLFPPKPKDTLMISRTPEVTCVVVAVSHEDPEVKFNWYVDGVEVHNAKTKPREEQYNSTYRVVSVLTVLHQDWLNGKEYKCKVSNKALPAPIEKTISKAKGQPREPQVYTLPPSREEMTKNQVSLTCLVKGFYPSDIAVEWESNGQPENNYKTTPPVLDSDGSFFLYSRLTVDKSRWQQGNVFSCSVMHEALHNHYTQKSLSLSPGK
light 2: DIQMTQSPSSLSASVGDRVTITCKASQGFNKYVAWYQQKPGKAPKLLIYYTSTLQPGVPSRFSGSGSGRDYTLTISSLQPEDFATYYCLQYGNLLYAFGQGTKVEIKRTVAAPSVFIFPPSDEQLKSGTASVVCLLNNFYPREAKVQWKVDNALQSGNSQESVTEQDSKDSTYSLSSTLTLSKADYEKHKVYACEVTHQGLSSPVTKSFNRGEC
notes: also called bslgG1-huCD3-H101G-FEALxB7H4-C2-FEAR
EC50 (read off the curve) (B7H4-IgV/B7H3-IgC): ~2 mg/L

B4: IgG1-B7H4-C2-FEAR (antibody, V domains shown)
VH: EVQLVQSGAEVKKPGASVKVSCKASGYTFTSYWIGWVRQAPGQGLEWIGDIYPGGGYTNYNEKFKGRVTITRDTSTSTAYLELSSLRSEDTAVYYCARLDGSSYRGAMDSWGQGTLVTVSS
VL: DIQMTQSPSSLSASVGDRVTITCKASQGFNKYVAWYQQKPGKAPKLLIYYTSTLQPGVPSRFSGSGSGRDYTLTISSLQPEDFATYYCLQYGNLLYAFGQGTKVEIKR
notes: as for B1
binding result [1]: binds | Kd [3]: 2.1 nM | koff [3]: 0.00013 s⁻¹ | kon [3]: 63000 M⁻¹ s⁻¹ | Kd [4]: 24 nM | koff [4]: 0.00077 s⁻¹ | kon [4]: 33000 M⁻¹ s⁻¹ | binding result [5]: binds | binding result [6]: binds
